From the Human Domainome abundance scans (Beltran et al. 2025)

B1: Protein S100-G, residues 1 to 79; numbered along this chain, P02633 (parent)
chain: MSAKKSPEELKGIFEKYAAKEGDPNQLSKEELKLLLQTEFPSLLKGPSTLDELFEELDKNGDGEVSFEEFQVLVKKISQ

Variants of: B1
Test: abundance fitness (aPCA) (normalised: wild type 0, dead -1); higher = more abundant; growth selection in yeast, the domain comes from the species named
Settings: Bos taurus

Abundance fitness, by site and new letter:
I13: P -0.424, D -0.436, F -0.201, T -0.17, C -0.093, N -0.631, S -0.26, K -0.173, E -0.386, G -0.959, H -0.287, V -0.123, W -0.231, Q -0.219, L -0.03, R -0.409, M 0.053
F14: Y 0.028, G -1.53, A -0.98, P -1.33, C -1, H -0.971, K -1.18, Q -1.29, T -1.33, S -1.22, M -0.589, I -0.504, R -1.37, E -1.32, L -0.73, D -1.23, N -1.2, V -0.729, W -0.088
E8: C -0.361, V -0.051, G -0.049, A -0.054, T -0.046, Q 0.033, H -0.148, D -0.125, F -0.079, Y -0.101, P -0.163, N -0.11, W -0.243, I -0.029, M 0.014, K -0.004, L -0.029, R -0.048, S -0.106
S6: Y -0.264, Q -0.076, A -0.227, V -0.203, N -0.161, C -0.398, I -0.121, L -0.15, M -0.111, T -0.03, G -0.103, R -0.232, D -0.071, K -0.204, W -0.372, E -0.159, H -0.119, F -0.054
A19: F -0.057, P -0.132, S 0.007, V -0.062, W -0.111, R -0.073, Q 0.028, H -0.013, M -0.015, N -0.017, D -0.034, G 0.058, T 0.143, I -0.018, C -0.009, K 0.048, L 0.02
A3: D 0.066, C 0.061, F 0.103, N 0.03, H -0.049, T -0.053, K -0.133, E -0.095, L 0.007, P -0.137, W -0.178, G -0.09, M 0.013, V 0.129, Q -0.01, I 0.077, S -0.123
K16: A -0.058, Q -0.122, P -0.34, D -0.18, G -0.213, S -0.042, E -0.105, I -0.184, V -0.179, F -0.087, L -0.031, H -0.101, C -0.12, N -0.07, W -0.176, R -0.082, Y -0.102, T -0.087, M -0.145
P7: W -0.09, K -0.062, S 0.02, F -0.066, D -0.119, G -0.121, L 0.013, H -0.067, R -0.079, V -0.058, E 0.037, T 0.066, C -0.021, Y 0.063, N -0.056, M 0.058
G12: V 0.031, M -0.002, T 0.068, Y -0.045, E -0.165, P -0.048, K 0.029, D 0.067, Q -0.059, R 0.046, N 0.001, L -0.009, I 0.088, H 0.064, W -0.082, F -0.01
E9: H -0.094, P -0.211, S -0.073, T -0.073, L -0.073, M -0.035, F -0.128, A -0.132, C -0.177, G -0.108, D 0.063, Y -0.023, K -0.061, V -0.062, R -0.179, N -0.03, I -0.111, Q 0.055
M1: R -0.631, N -0.186, P -1.34, Q -0.678, Y -0.501, W -0.667, S -0.368, V -0.313
E15: V -0.044, D -0.047, M 0.058, T 0.065, N -0.042, A -0.039, I 0.078, Q 0.024, G -0.062, C -0.152, S -0.009, W -0.048, F 0.016, P -0.722, H 0.018, K -0.031, Y 0.077
K4: C -0.222, Q -0.06, D 0.092, N 0.067, G -0.223, Y 0.01, A -0.337, V -0.145, F 0, M -0.023, H -0.004, S -0.005, L 0.051, W -0.343, E -0.154, P -0.097, T 0.06
A18: W -0.516, H -0.195, P -0.968, V -0.115, D -0.846, R -0.161, T -0.15, M -0.161, Q -0.248, N -0.362, G -0.077, I -0.248, S -0.055, Y -0.424, L -0.242, K -0.224, E -0.904, F -0.367
K20: R 0.012, N -0.012, S -0.088, G -0.01, I -0.098, A -0.119, V -0.077, F -0.159, M 0.053, Q 0.04, L -0.067, D -0.05, E -0.119, C -0.263
L10: E -0.202, I -0.039, A -0.09, T -0.174, D -0.322, Q -0.104, Y -0.038, F -0.048, W -0.076, H -0.155, S -0.221, N -0.31, M 0.044, K -0.401, V -0.081, C -0.536, P -0.383, R -0.488
K5: P -0.253, N -0.063, A -0.037, W -0.575, S -0.03, C -0.252, M -0.017, Y 0.025, V -0.126, F -0.015, R -0.154, E -0.105, Q -0.222, I 0.045, T 0, H -0.163
S2: E -0.105, G 0.039, T 0.102, N 0.094, V 0.085, A -0.138, P -0.699, I 0.144, Q 0, H -0.09, K 0.225, L -0.015, M 0.279, D 0.116, F 0.073, W -0.118
Y17: W -0.017, D -1.1, N -0.433, S -0.45, L -0.332, R -0.429, E -0.425, P -1.25, T -0.444, M -0.168, A -0.129, H -0.067, C -0.295, G -0.521, F -0.008, K -0.519, V -0.345, Q -0.379
K11: F 0.023, C -0.202, W -0.294, M -0.151, A -0.157, E -0.063, I -0.002, Q -0.04, D -0.369, P -0.373, G -0.176, R -0.185, Y -0.124, H -0.14, T -0.197, L -0.096
